Assay results from patent US20090117551.

Tests used:
[1] = system: GFP-caspase-3 recognition peptide inserted modified protein
[2] = system: GFP-trypsin recognition peptide inserted modified protein

Substance	FRET between quantum dot and GFP after protease treatment (30 C, 120 minutes) [1]	peak wavelength of fluorescence intensity [1]	FRET between quantum dot and GFP after protease treatment (37 C, 120 minutes) [2]	FRET waveform pattern, simultaneous DNase/trypsin assay (QD565 with GFP of FIG. 5A) [2]	peak wavelength of fluorescence intensity [2]
Caspase-3 (Medical & Biological Laboratories)	the disappearance of FRET was observed	shifted from 510 nm (untreated with trypsin) to 506 nm (treated with trypsin)	–	–	–
Trypsin	–	–	the disappearance of FRET was observed	it was observed that the peak around 510 nm shifted	shifted from 513 nm (untreated with trypsin) to 508 nm (treated with trypsin)
